Data: PMC9456106, “PET Probes for Preclinical Imaging of GRPR-Positive Prostate Cancer: Comparative Preclinical Study of [^68Ga]Ga-NODAGA-AMBA and [^44Sc]Sc-NODAGA-AMBA” (International Journal of Molecular Sciences, 2022)

What was measured:
[1] = Ex-vivo biodistribution in healthy control mice; parameters: species or system CB17 SCID mice; conditions: i.v.; for accumulation in the adrenal glands / accumulation in the kidneys / accumulation in the pancreas / accumulation in the urine: 30-180 min, approx.; for radiotracer uptake in blood, liver, spleen, gastrointestinal tract and thoracic organs: each investigated time point
Method: (§1) Thirty, 60, 120, and 180 min after the intravenous injection of 11.3 ± 1.4 MBq [^68Ga]Ga-NODAGA-AMBA or [^44Sc]Sc-NODAGA-AMBA healthy control and PC-3 tumor-bearing mice were euthanized with 5% Forane, sacrificed, and tissue samples were taken from the selected organs. The weight and the radioactivities of both the tumors and normal tissues were measured with calibrated gamma counter, and the uptake was expressed as %ID/g tissue.

[2] = In-vivo stability by analytical radio-HPLC of blood samples; parameters: species or system CB17 SCID mice; conditions: healthy mice, samples at 30, 60, 120, 180 min
Method: (§2) For pharmacokinetic studies, healthy control CB17 SCID mice (n = 12) were injected intravenously with 10.8 ± 1.6 MBq of [^68Ga]Ga-NODAGA-AMBA or [^44Sc]Sc-NODAGA-AMBA under isoflurane anesthesia. Thereafter, approximately 30 μL blood samples were collected from the saphenous vein into a capillary tube at the following time points: 30, 60, 120, and 180 minutes. The volume of the blood was determined using a digital caliper. Blood samples were placed in a γ-counter and the radioactivity of each sample was measured. Results were expressed as a percentage of the injected activity per mL (% ID/mL). For the determination of in vivo serum stability of [^68Ga]Ga-NODAGA-AMBA and [^44Sc]Sc-NODAGA-AMBA, blood samples were taken from the mice at the previously mentioned time points (30, 60, 120, and 180 min). Firstly, the blood samples were centrifuged at 4°C, 10,000 rpm for 5 min. Thereafter, 50 μL samples were taken from the supernatant and mixed with ice-cold abs. ethanol (50 μL) and centrifuged again at 4°C, 10 000 rpm for 5 min. The supernatants were analyzed by analytical radio-HPLC. In all cases, the radio-HPLC chromatograms were compared to the original chromatograms of the radiotracers to find any metabolite forms.

[3] = In-vitro stability in mouse plasma, Na2EDTA and oxalic acid (radio-HPLC); format: in vitro ADME; conditions: mixed with mouse plasma, oxalic acid
Method: For in-vitro stability measurements, the labelled compounds were mixed with mouse plasma, Na2EDTA, and oxalic acid. Samples were injected at different time points to the HPLC with and without a column.
After 15 and 90 min incubation time, a 50 µL sample was taken and 50 µL abs. EtOH was added to the aliquots. Then, the samples were centrifuged (20.000 rpm, 5 min), and the supernatant was removed and diluted with the eluent of HPLC. This was followed by the performance of the analytical measurements.

PC-3 tumors = assay: Ex-vivo biodistribution of PC-3 tumor-bearing mice; format: in vivo, CB17 SCID mice; conditions: for accumulation in PC3 tumors, blocked: 15 mg/kg BBN blocking, 15 mg/kg
Method: For animal experiments, 12-week-old female CB17 SCID (n = 64) were used. For the induction of GRPR-expressing tumor model, mice were anesthetized with a dedicated small animal anesthesia device (Tec3 Isoflurane Vaporizer, Eickemeyer Veterinary Equipment, Sunbury-on-Thames, UK) applying 3% isoflurane (Forane, AbbVie), 0.4 L/min O2, and 1.4 L/min N2O, and 5 × 10^6 PC-3 tumor cells in 0.9% NaCl (100 µL) were injected subcutaneously into the left shoulder area of CB17 SCID mice. In-vivo and ex-vivo experiments were carried out 14 ± 1 days after subcutaneous injection of tumor cells at the tumor volume of approximately 86 mm^3.
as §1
For blocking experiments, PC-3 tumor-bearing mice were injected intravenously with 15 mg/kg of BBN (Sigma-Aldrich) 30 min prior to the injection of 11.3 ± 1.4 MBq [^68Ga]Ga-NODAGA-AMBA or [^44Sc]Sc-NODAGA-AMBA and in-vivo and ex-vivo organ distribution studies were performed as described above.

[4] = Octanol/water partition coefficient (logP); format: physicochemical; conditions: 1-octanol/water, triplicates
Method: For the determination of LogP value and the in-vitro serum stability, the same protocol was used as was described earlier by our research group. Briefly, for the determination of the partition coefficient (logP), 10 µL of [^68Ga]Ga-NODAGA-AMBA or [^44Sc]Sc-NODAGA-AMBA solution (approximately 5 MBq) was mixed with 500 µL of 1-octanol and 490 µL of water in a test tube. To reach equilibrium state, the mixture was firmly stirred and then centrifuged (20.000 rpm, 5 min). One-hundred microliters of the samples were pipetted into vials from each layer, and the radioactivity of the fractions was determined with a calibrated gamma counter (Perkin-Elmer Packard Cobra, Waltham, MA, USA). The measurements were performed in triplicates for both labelled compounds.

[5] = Pharmacokinetics (blood clearance) in healthy control mice; format: in vivo; conditions: healthy control CB17 SCID mice, i.v.
Method: as §2

Row | SMILES | accumulation in the adrenal glands [1] | accumulation in the kidneys [1] | accumulation in the pancreas [1] | accumulation in the urine [1] | radiotracer uptake in blood, liver, spleen, gastrointestinal tract and thoracic organs [1] | in-vivo stability [2] | RCP, in-vitro stability ([3]; 15 min) | RCP, in-vitro stability ([3]; 90 min) | accumulation in PC3 tumors, blocked (PC-3 tumors; 60 min) [%ID/g] | accumulation in PC3 tumors (PC-3 tumors; 60 min after i.v. injection) [%ID/g] | accumulation in PC3 tumors, blocked (PC-3 tumors; 120 min) [%ID/g] | accumulation in PC3 tumors (PC-3 tumors; 120 min after i.v. injection) [%ID/g] | octanol/water partition coefficient (logP) [4] | half-life in the blood [5]
1 | CSCC[C@H](NC(=O)[C@H](CC(C)C)NC(=O)[C@H](Cc1c[nH]cn1)NC(=O)CNC(=O)[C@@H](NC(=O)[C@H](C)NC(=O)[C@H](Cc1c[nH]c2ccccc12)NC(=O)[C@H](CCC(N)=O)NC(=O)c1ccc(NC(=O)CNC(=O)CCC(C(=O)O)N2CCN(CC(=O)O)CCN(CC(=O)O)CC2)cc1)C(C)C)C(N)=O (stereo partly shown) [[^44Sc]Sc-NODAGA-AMBA] [metal not drawn] | 0.5–3 %ID/g | 2–8 %ID/g | 1–4 %ID/g | 250–450 %ID/g | Low radiotracer uptake | remained stable | over 98% | over 98% | 0.79 ± 0.16 | 4.56 ± 0.45 | 0.69 ± 0.17 | 4.14 ± 0.47 | −2.81 ± 0.14 | less than 30 minutes
2 | CSCC[C@H](NC(=O)[C@H](CC(C)C)NC(=O)[C@H](Cc1c[nH]cn1)NC(=O)CNC(=O)[C@@H](NC(=O)[C@H](C)NC(=O)[C@H](Cc1c[nH]c2ccccc12)NC(=O)[C@H](CCC(N)=O)NC(=O)c1ccc(NC(=O)CNC(=O)CCC(C(=O)O)N2CCN(CC(=O)O)CCN(CC(=O)O)CC2)cc1)C(C)C)C(N)=O (stereo partly shown) [[^68Ga]Ga-NODAGA-AMBA] [metal not drawn] | 0.5–3 %ID/g | 2–8 %ID/g | 1–4 %ID/g | 250–450 %ID/g | Low radiotracer uptake | remained stable | approximately 92% | approximately 85% | 0.60 ± 0.22 | 3.78 ± 0.93 | 0.48 ± 0.14 | 3.29 ± 1.20 | −2.75 ± 0.18 | less than 30 minutes
